In US20220235138A1, “CAR-T CELLS TARGETING IL-1RAP AND THEIR USE IN ACUTE MYELOID LEUKEMIA (AML)” (ETABLISSEMENT FRANCAIS DU SANG, priority 2019, published 2022):
Blank lines part the entries; values can stand above or below the binder they belong to.

What was measured:
[1] = biological target: recombinant IL-1RAP biotinylated protein (UniProt Q9NPH3); assay: flow cytometry, serial dilution of biotinylated IL-1RAP on CAR-transduced CEM cells, anti-biotin antibody; single experiment
[2] = biological target: recombinant IL-1RAP biotinylated protein (UniProt Q9NPH3); assay: flow cytometry, biotinylated IL-1RAP (1.25 ng) on CAR-transduced CEM cells, anti-biotin antibody
[3] = biological target: recombinant IL-1RAP biotinylated protein (UniProt Q9NPH3); assay: flow cytometry, serial dilution of biotinylated IL-1RAP on CAR-transduced primary T cells, anti-biotin antibody; single experiment
[4] = biological target: recombinant IL-1RAP biotinylated protein (UniProt Q9NPH3); assay: flow cytometry, biotinylated IL-1RAP (0.15 ng) on CAR-transduced primary T cells, anti-biotin antibody
[5] = biological target: IL-1RAP expressed at the cell surface of human cells (human), Q9NPH3; assay: flow cytometry on monocytes of healthy donors' peripheral blood (2/5) and bone marrow (3/5); RFI against isotype; conditions: remark: other sources report otherwise
IL-1RAP expressed at the cell surface of human cells (human), Q9NPH3, sequence (Q9NPH3 21-570): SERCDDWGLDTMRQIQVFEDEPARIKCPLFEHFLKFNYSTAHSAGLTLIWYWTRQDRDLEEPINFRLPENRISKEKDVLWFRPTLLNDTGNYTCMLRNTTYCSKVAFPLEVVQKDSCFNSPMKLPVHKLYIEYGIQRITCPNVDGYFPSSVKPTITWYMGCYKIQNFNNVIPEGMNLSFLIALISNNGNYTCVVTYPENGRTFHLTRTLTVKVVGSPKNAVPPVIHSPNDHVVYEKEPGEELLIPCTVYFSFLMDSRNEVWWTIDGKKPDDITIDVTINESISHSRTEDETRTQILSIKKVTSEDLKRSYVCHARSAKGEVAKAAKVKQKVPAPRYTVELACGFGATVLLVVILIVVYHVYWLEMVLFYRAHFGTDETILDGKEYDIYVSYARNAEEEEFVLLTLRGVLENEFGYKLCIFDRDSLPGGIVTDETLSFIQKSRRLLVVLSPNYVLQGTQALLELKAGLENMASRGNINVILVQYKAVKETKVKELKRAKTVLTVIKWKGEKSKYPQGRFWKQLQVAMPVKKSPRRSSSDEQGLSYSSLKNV

recombinant IL-1RAP biotinylated protein, sequence (Q9NPH3 21-359 limits assumed): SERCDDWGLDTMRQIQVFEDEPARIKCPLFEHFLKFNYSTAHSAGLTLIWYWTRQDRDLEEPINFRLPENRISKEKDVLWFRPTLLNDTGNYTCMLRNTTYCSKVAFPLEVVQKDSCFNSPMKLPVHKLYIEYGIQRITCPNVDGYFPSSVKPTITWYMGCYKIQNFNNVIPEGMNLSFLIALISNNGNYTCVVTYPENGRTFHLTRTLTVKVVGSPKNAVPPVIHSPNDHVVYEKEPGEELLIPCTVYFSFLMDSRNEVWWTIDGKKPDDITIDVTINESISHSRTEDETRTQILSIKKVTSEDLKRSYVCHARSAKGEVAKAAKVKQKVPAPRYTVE

- amount of recombinant protein required for recruiting maximum of cells [1]: 1.25 ng
- maximum percentage of Biotin+/CD19+ cells [2]: 85.8%
- amount of recombinant protein required for recruiting maximum of cells [3]: 0.15 ng
- maximum percentage of Biotin+/CD19+ cells [4]: 68.5%
B1: IL-1RAP CAR (scFv of #E3C3 with CD28-4.1BB-CD3z signaling chain) expressed at the surface of transduced CEM or primary T cells (protein, not shown: small tags and cut ends)
scFv: QVQLQQPGAELMMPGASVKVSCEASGYTFTDSWMHWVKQRPGQGLEWIGAIDPSDSYTTYNQKFTGKATLSVDESSNTAYMQLSSLTSEDSAVYYCARYYSGSNYISPFPYWGQGTLVTVSAGGSGGGGSGGGGSVDMESQIQVFVFVFLWLSGVDGDIVMTQSHKFMSTSVGDRVTITCKASLDVSTAVAWYQQKPGQSPKLLIYSASYRYTGVPDRFTGSGSGTDFTFTISSVQAEDLAVYYCQQHYSPPFTFGSGTNLEIK

- RFI [5]: < 2
B2: mouse anti-hIL-1RAP monoclonal antibody, clone #E3C3 (antibody, V domains shown)
VH: QVQLQQPGAELMMPGASVKVSCEASGYTFTDSWMHWVKQRPGQGLEWIGAIDPSDSYTTYNQKFTGKATLSVDESSNTAYMQLSSLTSEDSAVYYCARYYSGSNYISPFPYWGQGTLVTVSA
VL: DIVMTQSHKFMSTSVGDRVTITCKASLDVSTAVAWYQQKPGQSPKLLIYSASYRYTGVPDRFTGSGSGTDFTFTISSVQAEDLAVYYCQQHYSPPFTFGSGTNLEIK
